Laboratory results: PMC9245377

Assays:
Assay in all cases: ELISA; binding of recombinant InvL to α5β1 integrin, collagen V, fibrinogen, mucin or BSA (negative control); two biological replicates; protocol based on ref. 50, details in the supplemental material
collagen V = target: collagen V
α5β1 integrin = α5β1 integrin (UniProt P08648)
fibrinogen = target: fibrinogen

Sequence of UniProt P08648 (P08648 42-1049, chain 1 of 2): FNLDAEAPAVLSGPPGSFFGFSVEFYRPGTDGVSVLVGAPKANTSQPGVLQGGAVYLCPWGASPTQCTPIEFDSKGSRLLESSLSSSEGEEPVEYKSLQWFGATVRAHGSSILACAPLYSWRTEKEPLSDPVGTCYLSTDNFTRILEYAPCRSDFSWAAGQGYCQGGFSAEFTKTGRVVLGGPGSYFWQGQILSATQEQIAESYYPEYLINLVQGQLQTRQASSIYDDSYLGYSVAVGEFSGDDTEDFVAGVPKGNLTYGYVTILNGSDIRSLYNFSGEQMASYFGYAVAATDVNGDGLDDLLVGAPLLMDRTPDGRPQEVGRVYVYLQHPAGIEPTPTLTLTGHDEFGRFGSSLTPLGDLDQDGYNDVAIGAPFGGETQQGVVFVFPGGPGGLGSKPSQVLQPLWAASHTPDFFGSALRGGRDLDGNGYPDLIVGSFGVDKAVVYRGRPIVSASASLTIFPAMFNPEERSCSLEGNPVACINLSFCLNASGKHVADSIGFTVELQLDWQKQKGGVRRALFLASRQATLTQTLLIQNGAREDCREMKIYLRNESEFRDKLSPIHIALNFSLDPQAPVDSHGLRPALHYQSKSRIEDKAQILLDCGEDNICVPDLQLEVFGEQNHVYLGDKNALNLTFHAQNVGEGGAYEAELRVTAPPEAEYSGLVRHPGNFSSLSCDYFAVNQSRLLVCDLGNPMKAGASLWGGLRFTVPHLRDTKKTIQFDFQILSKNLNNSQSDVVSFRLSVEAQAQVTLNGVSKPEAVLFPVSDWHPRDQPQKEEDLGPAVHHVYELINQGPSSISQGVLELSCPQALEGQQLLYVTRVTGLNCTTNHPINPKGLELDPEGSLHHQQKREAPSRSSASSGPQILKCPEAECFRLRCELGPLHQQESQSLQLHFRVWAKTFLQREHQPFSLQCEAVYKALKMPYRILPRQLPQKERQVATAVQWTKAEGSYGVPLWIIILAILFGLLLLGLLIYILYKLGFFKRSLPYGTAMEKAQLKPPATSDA
Sequence of UniProt P08648 (P05556 21-798, chain 2 of 2, further chain): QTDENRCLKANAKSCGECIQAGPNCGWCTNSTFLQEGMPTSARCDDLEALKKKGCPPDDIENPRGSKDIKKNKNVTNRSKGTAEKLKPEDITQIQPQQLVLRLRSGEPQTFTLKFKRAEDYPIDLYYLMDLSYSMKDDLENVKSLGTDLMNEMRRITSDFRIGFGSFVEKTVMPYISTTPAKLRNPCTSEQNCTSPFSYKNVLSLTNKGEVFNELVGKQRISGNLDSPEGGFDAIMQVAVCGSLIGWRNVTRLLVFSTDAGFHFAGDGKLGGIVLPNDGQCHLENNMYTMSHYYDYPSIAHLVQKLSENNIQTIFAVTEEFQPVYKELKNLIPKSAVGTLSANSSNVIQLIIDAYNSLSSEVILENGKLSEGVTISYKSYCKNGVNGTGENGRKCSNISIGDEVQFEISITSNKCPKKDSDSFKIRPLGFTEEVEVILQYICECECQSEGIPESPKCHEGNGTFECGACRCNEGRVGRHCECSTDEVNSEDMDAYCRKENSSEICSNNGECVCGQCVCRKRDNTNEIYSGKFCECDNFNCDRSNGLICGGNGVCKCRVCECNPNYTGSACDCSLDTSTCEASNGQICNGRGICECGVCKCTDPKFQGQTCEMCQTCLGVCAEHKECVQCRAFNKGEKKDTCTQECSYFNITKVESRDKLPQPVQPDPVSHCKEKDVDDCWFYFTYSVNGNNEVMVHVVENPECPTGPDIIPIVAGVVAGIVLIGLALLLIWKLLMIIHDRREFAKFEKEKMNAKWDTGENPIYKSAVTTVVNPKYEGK

soluble recombinant InvL lacking the N-terminal signal sequence, with a C-terminal His10 tag (natural protein)
Kd (collagen V): 15000 nM | Kd (α5β1 integrin): 0.38 nM | Kd (fibrinogen): 0.19 nM
